The experiment concerns the target human PD-L1 full-length protein on cells (human) (UniProt Q9NZQ7). The experiment can be described thus: cell-based or functional assay.

Here are results for 3 substances from patent publication US20190023793A1.

human PD-L1 full-length protein on cells (human), sequence (Q9NZQ7 19-290): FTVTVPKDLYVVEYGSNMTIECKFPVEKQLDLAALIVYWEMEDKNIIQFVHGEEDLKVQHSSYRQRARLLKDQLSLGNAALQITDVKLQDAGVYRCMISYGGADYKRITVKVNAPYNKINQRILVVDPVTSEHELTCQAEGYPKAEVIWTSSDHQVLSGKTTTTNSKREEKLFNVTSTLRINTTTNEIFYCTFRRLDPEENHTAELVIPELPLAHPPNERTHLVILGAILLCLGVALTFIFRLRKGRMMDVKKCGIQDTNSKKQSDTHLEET

With Atezolizumab (antibody), the MOA NFAT reporter signal (Bio-Glo) at 0.005 nm was 16900, the MOA NFAT reporter signal (Bio-Glo) at 0.015 nm is 18400, the MOA NFAT reporter signal (Bio-Glo) at 0.046 nm is 17200 and the MOA NFAT reporter signal (Bio-Glo) at 0.137 nm was 19200. Also, the MOA NFAT reporter signal (Bio-Glo) at 0.412 nm is 29300, the MOA NFAT reporter signal (Bio-Glo) at 1.235 nm came out at 70800, the MOA NFAT reporter signal (Bio-Glo) at 3.704 nm stood at 96900 and the MOA NFAT reporter signal (Bio-Glo) at 11.111 nm worked out at 96500. For the same substance, the MOA NFAT reporter signal (Bio-Glo) at 33.333 nm worked out at 98000 and the MOA NFAT reporter signal (Bio-Glo) at 100.000 nm stood at 94000.
The substance Durvalumab (antibody) returned an MOA NFAT reporter signal (Bio-Glo) at 0.005 nm of 18200, an MOA NFAT reporter signal (Bio-Glo) at 0.046 nm of 20300, an MOA NFAT reporter signal (Bio-Glo) at 0.137 nm of 23200 and an MOA NFAT reporter signal (Bio-Glo) at 0.412 nm of 53100. The substance further yielded an MOA NFAT reporter signal (Bio-Glo) at 1.235 nm of 89700, an MOA NFAT reporter signal (Bio-Glo) at 3.704 nm of 103000, an MOA NFAT reporter signal (Bio-Glo) at 11.111 nm of 97900 and an MOA NFAT reporter signal (Bio-Glo) at 33.333 nm of 102000. For the same substance, the MOA NFAT reporter signal (Bio-Glo) at 100.000 nm was determined as 94100.
IgG1 negative control (antibody) displayed an MOA NFAT reporter signal (Bio-Glo) at 100.000 nm, negative control of 15700.
